Reference: patent US20260308258 (published 2026)
Like-named read-outs stand apart in the source and are kept apart here. One block for each binder: values may come before it.

Columns and labels:
CD16b-NA2 ECD [1] = target: T1, CD16b-NA2 ECD (human); assay: ELISA
T1 chain: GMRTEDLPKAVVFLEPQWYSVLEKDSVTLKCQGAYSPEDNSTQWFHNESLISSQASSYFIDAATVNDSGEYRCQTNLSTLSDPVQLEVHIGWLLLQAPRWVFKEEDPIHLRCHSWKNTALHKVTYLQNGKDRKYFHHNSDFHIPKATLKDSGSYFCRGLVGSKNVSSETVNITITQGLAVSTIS

CD16b-NA1 ECD [2] = target: T2, CD16b-NA1 ECD (human); assay: ELISA
T2 chain: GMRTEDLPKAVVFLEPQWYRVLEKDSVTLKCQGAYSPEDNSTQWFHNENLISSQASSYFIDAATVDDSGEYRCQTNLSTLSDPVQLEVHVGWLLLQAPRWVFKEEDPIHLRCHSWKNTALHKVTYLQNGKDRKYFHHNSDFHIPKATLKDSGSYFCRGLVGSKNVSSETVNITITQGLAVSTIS

CD16a-F ECD [3] = target: CD16a-F ECD (human); assay: ELISA
CD16a-V ECD [4] = target: CD16a-V ECD (human); assay: ELISA, + 10 mg/ml hIgG
CD16a-F ECD-Fc = CD16a-F ECD-Fc (human); assay: ELISA
CD16a-F ECD [5] = target: CD16a-F ECD (human); assay: ELISA, + 10 mg/ml hIgG
CD16a-V ECD [6] = target: CD16a-V ECD (human); assay: ELISA
CD16a-V ECD [7] = target: CD16a-V ECD (human); assay: BLI, 30C
CD16a-F ECD [8] = target: CD16a-F ECD (human); assay: ELISA; remark: listed apart in the source
[9] = target: T3, CD16b-NA2 ECD deglycosylated (human); assay: ELISA
T3 chain: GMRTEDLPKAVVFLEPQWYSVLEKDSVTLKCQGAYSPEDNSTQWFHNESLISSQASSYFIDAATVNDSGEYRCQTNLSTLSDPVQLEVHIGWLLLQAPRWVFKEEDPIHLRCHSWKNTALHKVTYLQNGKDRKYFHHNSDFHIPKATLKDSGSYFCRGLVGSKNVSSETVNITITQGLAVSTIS

[10] = target: T4, CD16b-NA1 ECD deglycosylated (human); assay: ELISA
T4 chain: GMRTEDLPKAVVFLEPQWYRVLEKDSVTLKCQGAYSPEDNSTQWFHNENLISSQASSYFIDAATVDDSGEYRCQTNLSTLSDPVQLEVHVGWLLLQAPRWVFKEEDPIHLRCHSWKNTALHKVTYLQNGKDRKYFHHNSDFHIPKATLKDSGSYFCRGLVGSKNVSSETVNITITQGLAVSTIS

CD16a-F ECD [11] = target: CD16a-F ECD (human); assay: BLI, 30C
CD16b-NA2 ECD [12] = target: T1, CD16b-NA2 ECD; assay: BLI, 30C
[13] = target: CD16a-F ECD deglycosylated (human); assay: ELISA
Mouse FcgRIV = target: T5, Mouse FcgRIV (mouse, UniProt A0A0B4J1G0); assay: BLI, 30C
T5 chain: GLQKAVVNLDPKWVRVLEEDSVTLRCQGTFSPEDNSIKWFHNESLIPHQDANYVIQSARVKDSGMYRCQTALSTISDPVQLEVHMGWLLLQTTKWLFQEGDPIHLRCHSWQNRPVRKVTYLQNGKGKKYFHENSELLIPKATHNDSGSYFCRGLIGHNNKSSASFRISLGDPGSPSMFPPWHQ

CD16a-V ECD [14] = target: CD16a-V ECD (human); assay: ELISA; remark: listed apart in the source
CD16b-NA1 ECD [15] = target: T2, CD16b-NA1 ECD; assay: ELISA
Cyno CD16a ECD = target: T6, Cyno CD16a ECD (cynomolgus); assay: BLI, 30C
T6 chain: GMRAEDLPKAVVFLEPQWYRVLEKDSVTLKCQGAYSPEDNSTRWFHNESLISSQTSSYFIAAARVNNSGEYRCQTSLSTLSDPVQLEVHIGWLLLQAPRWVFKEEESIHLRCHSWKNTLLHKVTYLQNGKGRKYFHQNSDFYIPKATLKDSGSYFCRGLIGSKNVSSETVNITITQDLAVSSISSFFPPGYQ

CD16b-NA2 ECD [16] = target: T1, CD16b-NA2 ECD; assay: ELISA
CD16b on neutrophils = target: T7, CD16b on neutrophils (human, UniProt O75015); assay: FACS, neutrophils
T7 chain: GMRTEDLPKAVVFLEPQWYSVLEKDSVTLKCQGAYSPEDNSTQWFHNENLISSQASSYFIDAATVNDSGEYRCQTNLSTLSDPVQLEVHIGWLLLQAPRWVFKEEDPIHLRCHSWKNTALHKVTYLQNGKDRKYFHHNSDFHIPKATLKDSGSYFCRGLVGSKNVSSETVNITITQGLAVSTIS

CD16a-F D82N = CD16a-F D82N (human); assay: FACS
Chain of CD16a-F D82N (human) (chain, as listed by the source D82N): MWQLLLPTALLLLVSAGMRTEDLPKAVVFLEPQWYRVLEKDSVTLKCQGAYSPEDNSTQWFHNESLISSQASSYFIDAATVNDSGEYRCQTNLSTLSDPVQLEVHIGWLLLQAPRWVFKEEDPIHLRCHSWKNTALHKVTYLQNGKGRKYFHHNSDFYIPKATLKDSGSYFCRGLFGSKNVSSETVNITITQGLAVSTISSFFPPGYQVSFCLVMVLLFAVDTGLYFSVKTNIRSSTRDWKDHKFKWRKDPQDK

CD16b-NA1 ECD [17] = target: T2, CD16b-NA1 ECD; assay: BLI, 30C
[18] = target: CD16a-V ECD deglycosylated (human); assay: ELISA
CD16b-NA2 ECD [19] = target: T1, CD16b-NA2 ECD; assay: ELISA
CD16a-V ECD [20] = target: CD16a-V ECD (human); assay: ELISA; remark: listed apart in the source
CD16a-F ECD [21] = target: CD16a-F ECD (human); assay: ELISA; remark: listed apart in the source

Kd (CD16b-NA2 ECD [1]): 546 nM
Kd (CD16b-NA1 ECD [2]): > 1000 nM
Kd (CD16a-F ECD [3]): 0.048 nM
Kd (CD16a-V ECD [4]): 0.53 nM
Kd (CD16a-F ECD-Fc): 0.11 nM
Kd (CD16a-F ECD [5]): 0.74 nM
Kd (CD16a-V ECD [6]): 0.051 nM
B1: #3A2 IgG1 (antibody)
chain 1: QLQLQESGPGLVKPSETLSLTCTVSGGSIGRGDYYWGWIRQPPGKGLEWIGTIDYSGRTYYNPSLKSRVTISVDTSKNQFSLKLSSVTAADTAVYYCARAFPGEYFGVFDHWGQGTLVTVSS
chain 2: EIVLTQSPGTLSLSPGERATLSCRASQSVSSSYLAWYQQKPGQAPRLLIYDATSRATGIPDRFSGSGSGTDFTLTISRLEPEDFAVYYCQQYDSSSLITFGQGTKVEIK

Kd (CD16b-NA2 ECD [1]): 298 nM
Kd (CD16b-NA1 ECD [2]): 1300 nM
Kd (CD16a-F ECD [3]): 0.14 nM
Kd (CD16a-V ECD [4]): 0.61 nM
Kd (CD16a-F ECD-Fc): 0.13 nM
Kd (CD16a-F ECD [5]): 0.67 nM
Kd (CD16a-V ECD [6]): 0.16 nM
B2: #6A2 IgG1 (antibody)
chain 1: QLQLQESGPGLVKPSETLSLTCTVSGGSIGRGDYYWGWIRQPPGKGLEWIGTIDYSGRTYYNPSLKSRVTISVDTSKNQFSLKLSSVTAADTAVYYCARAFPGEYFGVFDHWGQGTLVTVSS
chain 2: not shown

Kd (CD16a-V ECD [7]): 6.6 nM
Kd (CD16a-F ECD [8]): 0.28 nM
Kd [9]: 1 nM
Kd [10]: 11.2 nM
Kd (CD16a-F ECD [11]): 18 nM
Kd (CD16b-NA2 ECD [12]): 214 nM
Kd [13]: 1 nM
binding result (Mouse FcgRIV): no binding
Kd (CD16a-V ECD [14]): 0.4 nM
Kd (CD16a-F ECD-Fc): 0.1 nM
Kd (CD16b-NA1 ECD [15]): 73 nM
binding result (Cyno CD16a ECD): no binding
Kd (CD16b-NA2 ECD [16]): ~200 nM
binding result (CD16b on neutrophils): no binding
binding result (CD16a-F D82N): no binding
binding result (CD16b-NA1 ECD [17]): no binding
Kd [18]: 0.53 nM
Kd (CD16b-NA2 ECD [19]): 239 nM
Kd (CD16a-V ECD [20]): 0.85 nM
Kd (CD16a-F ECD [21]): 0.98 nM
B3: #55 IgG1 (antibody)
chain 1: EVQLLESGGGLVQPGGSLRLSCAASGFTFSNYAMSWVRQAPGKGLEWVSAISGGGSYTYYADSVKGRFTISRDNSKNTLYLQMNSLRAEDTAVYYCARTYLRRWYYFDYWGQGTLVTVSS
chain 2: DIQMTQSPSSLSASVGDRVTITCRASQTITSYLNWYQQKPGKAPKLLIYAASSLQSGVPSRFSGSGSGTDFTLTISSLQPEDFATYYCQQSYTSPVTFGQGTKVEIK
